Experimental data from US20070248536A1.

Assays:
human IgG Fc (human) [1] = assay: SPR (BIACORE), value before the coupling to PE
human IgG Fc (human) [2] = assay: concentration-dependent ELISA, IgG Fc coated, apparent KD
human IgG Fc (human) [3] = assay: method not given; given for comparison with the ELISA value

Kd (human IgG Fc (human) [1])	Kd (human IgG Fc (human) [2])	Kd (human IgG Fc (human) [3])	Binder
100 nM	233 nM	–	Affilin variation SPC1-A7_Cys (designed binder) MGLISFSEDRAFQGRRYMCLTDCPNLQPYFSRCNSINVWSGCWMIYERPNYQGHQYFLRRGEYPDYQQWMGLSDSIRSCCLIPPHSGAYRMKIYDRDELRGQMSELTDDCLSVQDRFHLTEIHSLNVLEGSWILYEMPNYRGRQYLLRPGEYRRFLDWGAPNAKVGSLRRVMDLYLESGGGGGGSCHHHHHHHHHH
–	–	280 nM	Affilin variation SPC1-A7BB (designed binder) MGLISFSEDRAFQGRRYMCLTDCPNLQPYFSRCNSINVWSGCWMIYERPNYQGHQYFLRRGEYPDYQQWMGLSDSIRSCCLIPPHSGAYRMKIYDRDELRGQMSELTDDCLSVQDRFHLTEIHSLNVLEGSWILYEMPNYRGRQYLLRPGEYRRFLDWGAPNAKVGSLRRVMDLYLEHHHHHH
